Laboratory results taken from US20250270737A1, “Antibodies That Bind GLP1R” (Twist Bioscience Corporation, priority 2019, published 2025).
Read-outs that look alike come from different tables or passages of the source.

T1: GLP2R (Homo sapiens, UniProt O95838)
T1 sequence (O95838 1-553): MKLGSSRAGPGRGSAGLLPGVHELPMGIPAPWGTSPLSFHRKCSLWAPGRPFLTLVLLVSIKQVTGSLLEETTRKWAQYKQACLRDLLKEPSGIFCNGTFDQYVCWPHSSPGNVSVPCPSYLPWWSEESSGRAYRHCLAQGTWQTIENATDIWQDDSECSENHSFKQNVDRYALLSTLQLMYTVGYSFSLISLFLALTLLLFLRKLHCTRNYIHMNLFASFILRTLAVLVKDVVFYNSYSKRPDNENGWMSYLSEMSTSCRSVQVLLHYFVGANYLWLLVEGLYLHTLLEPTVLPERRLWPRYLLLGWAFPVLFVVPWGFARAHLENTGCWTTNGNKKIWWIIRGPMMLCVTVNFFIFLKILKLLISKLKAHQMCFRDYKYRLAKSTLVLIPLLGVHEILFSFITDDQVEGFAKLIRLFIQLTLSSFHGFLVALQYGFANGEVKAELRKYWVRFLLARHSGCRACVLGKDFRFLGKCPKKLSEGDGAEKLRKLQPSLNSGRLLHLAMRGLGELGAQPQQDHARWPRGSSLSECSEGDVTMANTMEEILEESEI

T2: mouse GLP1R (Mus musculus, UniProt O35659)
T2 sequence (O35659 22-463): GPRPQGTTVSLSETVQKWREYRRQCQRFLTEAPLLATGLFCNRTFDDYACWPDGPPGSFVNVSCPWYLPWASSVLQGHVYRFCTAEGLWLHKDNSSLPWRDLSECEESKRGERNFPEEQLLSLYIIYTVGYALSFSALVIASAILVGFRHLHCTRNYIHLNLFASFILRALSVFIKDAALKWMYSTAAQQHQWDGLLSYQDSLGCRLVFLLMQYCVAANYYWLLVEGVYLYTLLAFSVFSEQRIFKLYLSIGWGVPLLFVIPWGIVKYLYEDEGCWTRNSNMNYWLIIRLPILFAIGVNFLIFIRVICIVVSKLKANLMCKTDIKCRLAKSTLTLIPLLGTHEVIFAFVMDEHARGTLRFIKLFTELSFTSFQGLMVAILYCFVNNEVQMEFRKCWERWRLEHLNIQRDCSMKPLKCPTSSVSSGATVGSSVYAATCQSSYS

B1: GLP1R-3: GLP1R antagonist IgG, CDR-H3 SEQ ID NO 2279, heavy chain SEQ ID NO 2320 (antibody)
heavy: QVQLVESGGGVVQPGRSLRLSCAASGFTFSSYGMHWVRQAPGKGLEWVSFISYDESNKYYADSVKGRFTISRDNSKNTLYLQMNSLRAEDTAVYYCAKHMSMQEGAVTGEGQAAKEFIAWLVKGRVRADLVGDAFDVWGQGTLVTVSSASTKGPSVFPLAPCSRSTSESTAALGCLVKDYFPEPVTVSWNSGALTSGVHTFPAVLQSSGLYSLSSVVTVPSSNFGTQTYTCNVDHKPSNTKVDKTVERKCCVECPPCPAPPVAGPSVFLFPPKPKDTLMISRTPEVTCVVVDVSHEDPEVQFNWYVDGVEVHNAKTKPREEQFNSTFRVVSVLTVVHQDWLNGKEYKCKVSNKGLPAPIEKTISKTKGQPREPQVYTLPPSREEMTKNQVSLTCLVKGFYPSDIAVEWESNGQPENNYKTTPPMLDSDGSFFLYSKLTVDKSRWQQGNVFSCSVMHEALHNHYTQKSLSLSPGK
light: QSVLTQPPSVSAAPGQKVTISCSGSSSNIADNYVSWYQQLPGTAPKLLIYDNNKRPSGIPDRFSGSKSGTSATLGITGLQTGDEADYYCGTWDNYLGAGVFGGGTKLTVLGQPKAAPSVTLFPPSSEELQANKATLVCLISDFYPGAVTVAWKADSSPVKAGVETTTPSKQSNNKYAASSYLSLTPEQWKSHRSYSCQVTHEGSTVEKTVAPTECS
B2: GLP1R-43-77: GLP1R VHH Fc binder variant from the VHH library for GLP1R (protein)
VHH: EVQLVESGGGLVQAGGSLRLSCAASGNTYSYKVMGWFRQAPGKEREFVGIIIRNGDTTYYADSVKGRFTISADNAKNTVYLQMNSLKPEDTAVYYCAASPKYMTAYERSYDWGQGTQVTVSS
modifications: Fc

Key:
C57BL/6NHsd Mice = experiment: Glucose Tolerance Test (GTT) in wild-type mice; type: in vivo, mouse; conditions: control mice exhibited a decrease; FIG. 25D
Experimental: 15 C57BL/6NHsd Mice were used and subjected to a Glucose Tolerance Test (GTT). The in vivo GTT test was performed on three groups of mice with 5 mice per group. […] Blood glucose measurements were recorded for each mouse at 15, 30, 60, 120, and 180 minutes after dextrose injection. […] A third group of mice were the control mice and were not treated. Data is seen for GLP1R-59-2 (agonist), GLP1R-3 (antagonist), and control in FIGS. 25A-25D.

GLP1R [1] = target: T3, GLP1R (Homo sapiens, UniProt P43220); experiment: cAMP assay, allosteric/antagonist effects on Exendin-4 peptide induced cAMP activity (Example 10); type: cell-based
T3 sequence (P43220 24-463): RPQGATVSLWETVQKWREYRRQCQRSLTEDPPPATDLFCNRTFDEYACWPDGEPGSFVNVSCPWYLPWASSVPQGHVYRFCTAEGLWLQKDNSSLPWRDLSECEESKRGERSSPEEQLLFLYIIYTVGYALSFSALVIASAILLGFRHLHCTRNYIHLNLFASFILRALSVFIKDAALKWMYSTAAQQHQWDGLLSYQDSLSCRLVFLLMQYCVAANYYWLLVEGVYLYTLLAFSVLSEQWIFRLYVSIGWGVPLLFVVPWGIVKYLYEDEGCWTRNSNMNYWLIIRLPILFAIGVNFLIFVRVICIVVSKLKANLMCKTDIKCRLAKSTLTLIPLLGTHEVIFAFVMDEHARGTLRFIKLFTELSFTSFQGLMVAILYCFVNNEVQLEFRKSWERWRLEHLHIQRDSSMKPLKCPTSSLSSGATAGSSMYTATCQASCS

C57BL/6J DIO mice = experiment: Oral glucose tolerance test in mouse model of diet induced obesity; type: in vivo; conditions: HFD, 10 mg/kg SC, 2 g/kg oral glucose 60 minutes later, FIGS. 24C-24D
Experimental: The objective of this study was to evaluate the acute effects of a chimeric antibody GLP1R agonist and antagonist on glycemic control in a mouse model of diet induced obesity in C57BL/6J DIO mice. The test articles are seen below in Table 25.
For each test article, 7 different test article groups were generated as summarized in the following Table 26 with 8 animals per group.
On Day 3 (all animals) and Day 1 (Group 1-7), a non-fasting blood glucose was determined by tail snip. Approximately 5-10 μL of blood was collected. The second drop of blood from the animal was placed on a blood glucose test strip and analyzed using a hand-held glucometer (Abbott Alpha Trak).
After a non-fasting blood glucose measurement was made on the day of the procedure, the animals were weighed, tails marked, and the animals placed in clean cages without food. The animals were fasted for 4 hours and a fasting blood glucose measurement was determined.
The oral glucose tolerance test (OGTT) was administered to each animal 60 minutes later. The animals were dosed via oral gavage with 2 g/kg glucose (10 mL/kg). Blood glucose was determined via tail snip with the second drop of blood from the animal placed on a hand-held glucometer (Abbott Alpha Trak) at the following times relative to the glucose dose: 0 (just prior to glucose dose), 15, 30, 60, 90, and 120 minutes. […]

[2] = test system: human pancreatic precursor cells expressing endogenous GLP1R; experiment: Binding to human pancreatic precursor cells expressing endogenous GLP1R
Experimental: (§1) Binding of GLP1R-3, GLP1R-59-242, and GLPTR-43-8 on mouse, macaca, and human GLP1R was determined. […] Binding of GLP1R-59-2, GLP1R-59-241, and GLPTR-59-243 on mouse, macaca, and human GLP1R was determined.

GLP2R = target: T1, GLP2R; experiment: Specificity of GLP1R versus GLP2R binding; conditions: data not shown
macaca GLP1R = experiment: Binding on macaca GLP1R; conditions: IgG at 100 nM (GLP1R-59-243 at 50 nM); data not shown
Experimental: as §1

GLP1R [3] = target: T3, GLP1R; experiment: Binding on human GLP1R; conditions: IgG at 100 nM (GLP1R-59-243 at 50 nM); data not shown
Experimental: as §1

GLP1R [4] = target: T3, GLP1R; experiment: cAMP assay, allosteric effects on GLP1-7-36 peptide induced cAMP activity (Example 10); type: cell-based; conditions: FIGS. 10B-10J
Experimental: Cell binding was determined for the GLP1R variants. […] GLP1R-3, GLP1R-8, GLP1R-26, GLP1R-56, GLP1R-58 and GLP1R-10 were then analyzed for allosteric effects on GLP1-7-36 peptide in a cAMP assay. FIGS. […] show graphs of the GLP1R variants on inhibition of GLP1-7-36 peptide induced cAMP activity.

mouse GLP1R = target: T2, mouse GLP1R; experiment: Binding on mouse GLP1R; conditions: IgG at 100 nM (GLP1R-59-243 at 50 nM); data not shown
Experimental: as §1

[5] = Thermal ramp stability (Tm and Tagg), UNcle platform; type: physicochemical
From the text: The GLP1R IgGs were characterized for thermal ramp stability (Tm and Tagg). The UNcle platform was used to characterize the IgGs and the data is seen in Table 21.

GLP1R [6] = target: T3, GLP1R
Experimental: All GLP1R scFv clones, as well as pGPCR-GLP1R-43 and pGPCR-GLP1R-44, were assayed for their potential effects on GLP1R signaling by performing cAMP assays (Eurofins DiscoverX Corporation). These assays involve CHO cells that were engineered to overexpress naturally Gαs-coupled wildtype GLP1R and were designed to detect changes in intracellular cAMP levels in response to agonist stimulation of the receptor. The technology involved in detecting cAMP levels was a no wash gain-of-signal competitive immunoassay based on Enzyme Fragment Complementation technology and produced a luminescent signal that was directly proportional to the amount of cAMP in the cells. Experiments were designed to determine agonist or allosteric activity of the IgGs.

CHO-parent = experiment: VHH-Fc FACS binding on CHO-parent cells; conditions: Sample E10.fcs/CHO-parent
GLP1R [7] = target: T3, GLP1R; experiment: VHH-Fc FACS binding on CHO-GLP1R cells; conditions: Sample E10.fcs/CHO-GLP1R
Experimental: A VHH library for GLP1R was developed similar to methods described in Example 14. Briefly, stable cell lines expressing GLP1R were generated, and target expression was confirmed by FACS. Cells expressing >80% of the target were then used for cell-based selections. Five rounds of cell-based selections were carried out against cells stably overexpressing the target of interest. 10^8 cells were used for each round of selection. Before selection on target expressing cells, phage from each round was first depleted on 10^8 CHO background cells. Stringency of selections was increased by increasing the number of washes in subsequent rounds of selections. The […] using trypsin, and the phage was amplified for the next round of panning. A total of 1000 clones from round 4 and round 5 are sequenced by NGS to identify unique clones for reformatting as VHH-Fc.
The data for variant GLP1R-43-77 is seen in FIGS. 22A-22B and Tables 23B-24.

Molecule | change of glucose in a 6 hour fast, pre-dosed animals (C57BL/6NHsd Mice) | EC50 (GLP1R [1]; EC50 of Exendin-4 induced cAMP in the presence of the GLP1R variant) [nM] | fold-diff (GLP1R [1]; fold difference of Exendin-4 EC50 with variant versus Exendin-4 alone) | glucose levels after glucose administration (OGTT) (C57BL/6J DIO mice) | binding to human pancreatic precursor cells expressing endogenous GLP1R [2] | specificity of GLP1R versus GLP2R binding (GLP2R) | binding on macaca GLP1R (macaca GLP1R) | binding on human GLP1R (GLP1R [3]) | allosteric inhibition of GLP1-7-36 peptide induced cAMP activity (GLP1R [4]) | binding on mouse GLP1R (mouse GLP1R) | Average Tagg 266 [5] [°C] | Average Tm2 [5] [°C] | Average Tml [5] [°C] | EC50 (GLP1R [6]; EC50 of GLP1 (7-36) cAMP response with GLP1R IgG (+100 nM)) [nM] | fold difference of EC50 (GLP1R [6]; EC50 with 100 nM IgG versus no antibody (Table 23)) [fold] | inhibition of GLP1:GLP1R signaling (GLP1R [6]; GLP1 (7-36) titration versus no antibody, FIG. 24A) | inhibition at higher concentrations (GLP1R [6]; following stimulation with 0.05 nM GLP1 (7-36), FIG. 24B) | Median: RL1-A (CHO-parent) | Median: RL1-A (GLP1R [7])
B1 | did not show decreased glucose | 0.63 | 5.4 | sustained high glucose levels | found to bound | specific for GLP1R over GLP2R | found to bind | found to bind | allosteric inhibition | found to bind | 68.4 | 73.5 | 66.7 | 1.31 | 2.2 | inhibits GLP1:GLP1R signaling | complete inhibition |  | 
B2 |  |  |  |  |  |  |  |  |  |  |  |  |  |  |  |  |  | 237 | 23439
